Patent US20100173005A1, “MICROPARTICLE FORMULATIONS FOR SUSTAINED-RELEASE OF BIOACTIVE COMPOUNDS” (POWDER PHARMACEUTICALS INCORPORATED, priority 1999, published 2010)

Legend:
[1] = Repeat sustained release study of lysozyme from sulfated dextran beads: PBS elution at 0.84 ml/min, HPLC analysis; format: physicochemical
Experimental: The sustained release study described in the above Example was repeated except, in this instance, a different elution rate was used to determine if the rate of release of the lysozyme guest substance from the dextran is a function of the flow rate of the elution buffer.
More particularly, sulfated dextran beads were loaded with lysozyme as described in the above Example. The specifics of the loading were as follows: 42.4 g of the hydrated dextran beads was stirred in 100 ml of lysozyme solution (to yield a 20.11 mg/ml solution) for 1 hour. The loaded beads were then loaded into a column as described above for a further sustained release study.
For the PBS elution, the PBS wash (pH 7.4) was used to elute lysozyme from the beads at a flow rate of 0.84 ml/min for 20.6 hours. The eluted solution was collected in fractions, and the elution fractions were analyzed with HPLC for lysozyme concentration using a Vydac C18 HPLC column. For the high-salt elution, the remaining lysozyme in the beads was then eluted with the high-salt elution buffer at a rate of […].
The amount of lysozyme protein that eluted with the PBS wash was 39.51 mg and, from the high salt elution, the amount of lysozyme was 40.34 mg. Accumulated percent lysozyme release (Y) was plotted against elution time (X).

[2] = Sustained release of lysozyme from sulfated dextran hydrogel beads: PBS wash then high salt elution, UV detection; format: physicochemical
From the text: A preparation of cross-linked, sulfated dexan affinity chromatography resin beads were obtained from a commercial source (Sigma. St, Louis, Mo.). More particularly, 4% cross-linked sulfated beaded dextran was obtained as a lyophilized powder stabilized in lactose. The sulfate ligand will bind with a charged guest substance (e.g. a peptide or protein) at low salt concentration. This binding is reversible and the bound guest can be desorbed at a high salt concentration.
In the study, lysozyme (Sigma) was loaded into the beads using the techniques described in commonly held International Application No. PCT/GB00/00349.
Particularly, each gram of the sulfated dextran beads was washed with approximately 3×500 ml deionized water. Excess water was removed by vacuum filtration. A loading solution was prepared by dissolving 4.00 g lysozyme in 200 ml deionized water, yielding a 20 mg/ml solution. The loading solution was added to the hydrated dextran beads at a 1:1 ratio to provide a suspension. The suspension was stirred for one hour, and excess solution was drained from the hydrated beads. The loaded beads were then divided into two portions. The first portion (5.7 cc, experimental) was placed into a column (Econo column, BioRad, Hercules, Calif.) and washed with a phosphate buffered saline (PBS) solution (pH 7.4) for 19.6 hours, then eluted with 21.2 ml of a high salt elution buffer (1.0M ammonium sulfate, 50 mM sodium phosphate, pH 7.2). […] The amount of lysozyme released from the dextran beads during the PBS wash was determined by comparison against the amount of lysozyme eluted by the elution solution for both the experimental and the control portions.
Lysozyme concentration was determined using a UV detector (BioRad UV detector). A standard curve (UV absorption vs lysozyme concentration) was prepared by measuring the UV absorption of stock lysozyme solutions at different concentration ranging from 1 mg/ml to 4 mg/ml, Concentrations of the unknowns were then determined by extrapolation of the standard curve. […]

Q: Which results are given for lysozyme?
A: release rate (slope of accumulated percent release vs elution time) ([1]; PBS elution at 0.84 ml/min, line equation Y=1.49X+0.242): 1.49 %/hr; amount of lysozyme protein eluted with the PBS wash ([1]; PBS pH 7.4, flow rate 0.84 ml/min for 20.6 hours, HPLC): 39.51 mg; amount of lysozyme from the high salt elution ([1]; remaining lysozyme eluted with high-salt elution buffer after the PBS wash): 40.34 mg; amount of lysozyme eluted in the elution buffer ([2]; control portion, immediately eluted with high salt elution buffer alone): 10.5 mg/ml wet beads; amount of lysozyme eluted in the elution buffer ([2]; experimental portion (PBS washed beads, 19.6 hours), high salt elution buffer 1.0M ammonium sulfate, 50 mM sodium phosphate, pH 7.2): 3.72 mg/ml beads; amount of lysozyme released during the PBS wash ([2]; experimental portion, PBS pH 7.4 wash for 19.6 hours, UV detector): not detectable
